# “And” between values parts separate entries of the source, which are not always exact repeats. Equal values may be shown once.
# Assays:
# [1] = biological target: recombinant ribulose-5-phosphate epimerase 2 from Trypanosoma cruzi CL Brener clone (TcRPE2) (Trypanosoma cruzi CL Brener clone); test: SEC-MALS; Superose 12 column with in-line multi-angle static and dynamic light scattering (SEC-FPLC-LS), room temperature, 50 mM Tris-HCl pH 7.6, 500 mM NaCl, 0.4 ml/min; mixture of oligomeric species of one protein
# TcRPE1 = biological target: T1, TcRPE1 (Trypanosoma cruzi, UniProt Q4DBL0); test: coupled enzyme assay (transketolase), spectrophotometric; type: biochemical; conditions: pH 7.25, 30°C, triethanolamine-HCl, 0.02–2 mM substrate; biphasic kinetics, authors give no constants
# T1 construct: gene Tc00.1047053510257.30; full-length ORF of 735 bp, pET-22b(+), C-terminal His6 tag kept, E. coli BL21 codon Plus (DE3), subunit 27 kDa, monomer to octamer mixture
# T1 sequence (Q4DBL0 1-244): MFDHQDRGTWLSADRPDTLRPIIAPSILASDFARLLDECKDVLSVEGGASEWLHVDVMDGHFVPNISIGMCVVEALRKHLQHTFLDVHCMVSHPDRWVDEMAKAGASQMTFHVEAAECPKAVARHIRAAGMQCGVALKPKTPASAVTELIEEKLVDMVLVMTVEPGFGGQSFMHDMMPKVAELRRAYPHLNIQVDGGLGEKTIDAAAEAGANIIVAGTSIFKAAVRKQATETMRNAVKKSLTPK
Molecule,stoichiometry N [1],"coupled enzyme assay (transketolase), spectrophotometric (TcRPE1)"
recombinant ribulose-5-phosphate epimerase 2 from Trypanosoma cruzi CL Brener clone (TcRPE2) (enzyme),2 and 4,–
O=C(CO)[C@H](O)[C@H](O)COP(=O)(O)O [D-ribulose-5-phosphate],–,TcRPE1 showed a very complex kinetic pattern to increasing concentrations of Ru5P

# From PMC5312968, “Structure, kinetic characterization and subcellular localization of the two ribulose 5-phosphate epimerase isoenzymes from Trypanosoma cruzi” (PLoS ONE, 2017)
